System: double-stranded oligonucleotide (ran2)
Assay: SPR analysis of the interaction between MipZ and DNA
Format: binding
Protocol: Figure S5. Surface plasmon resonance (SPR) analysis of the interaction betw een MipZ and DNA, Related to Figure 4.
(A) Effect of Mg2+ on the DNA-binding activity of MipZ. A double-stranded oligonucleotide (ran2, 700 RU) was immobilized on an SPR sensor chip and probed with MipZ (1 µM). The binding reactions were performed in buffer BC containing the indicated nucleotide (2 mM) and no (ATP + Mg2+) or 10 mM (no nucleotide, ADP, ATP) EDTA, respectively.
(B) DNA-binding specificity of MipZ. A double-stranded oligonucleotide (ran2, 500 RU) was immobilized on an SPR sensor chip and allowed to react with MipZ protein (1 µM) that had been preincubated with 2 mM ATP and a double-stranded oligonucleotide (ran2, 6 µM) (dsDNA), a single-stranded oligonucleotide (top strand of ran2, 6 µM) (ssDNA), an oligoribo-nucleotide (with a sequence analogous to the top strand of ran2, 6 µM) (RNA) or polyphosphate (25 µg/ml) (PP), respectively. A reaction performed in the absence of any competitor served as a control. […]
experimental conditions used (data not shown). The dissociation rate constant determined for the reaction without ParB was […]
obtained from crystals flash frozen in a solution of 95% 2 mM, sa mp le s were taken and analyzed for the amount ethanol/50 mM Tris (pH 8.5), and collected at ID23-2, of [α-32P]-GDP produced in the reaction as described ESRF (Grenoble, France). […]

B1: MipZ: P loop ATPase and cell division inhibitor of Caulobacter crescentus; hexahistidine-tagged in vitro, YFP fusion in FRAP (protein)
chain: MAETRVIVVGNEKGGAGKSTIAVHLVTALLYGGAKVAVIDLDLRQRTSARFFENRRAWLDNKKIELPEPLALNLSDNDVALAERPEEEQVAGFEAAFARAMAECDFILIDTPGGDSAITRMAHGRADLVVTPMNDSFVDFDMLGTVDPVTLELTKPSLYSLTVWEGRKQRALSGQRQAMDWVVLRNRLATTEARNRKRLEDRLNALAKRVGFRIGPGLRDRVIYRELFPFGLTIADLSPQVRPVPVSLQHLAARQELRALMHSLGLSAYSGETMLAAQ
modifications: left off: His6, end not stated, state not stated
notes: hexahistidine-tagged in vitro, YFP fusion in FRAP
rate constant for the dissociation of MipZ from DNA (koff) (MipZ 0.5 µM, 2 mM ATP, without ParB): 0.025 s⁻¹
half-time t1/2 of dissociation of MipZ from DNA (in vitro): 28 s

— article PMC3355305, “Localized Dimerization and Nucleoid Binding Drive Gradient Formation by the Bacterial Cell Division Inhibitor MipZ” (Molecular Cell, 2012)
